Data from patent US20220033505A1 (Janssen / Centocor, published 2022).

B1: HC3B124 (CD3B219-Fab-Fc x MHGB732-scFv-Fc) (bispecific antibody, human IgG1, lambda, L234A L235A)
heavy: EVQLVESGGGLVQPGGSLRLSCAASGFTFNTYAMNWVRQAPGKGLEWVARIRSKYNNYATYYAASVKGRFTISRDDSKNSLYLQMNSLKTEDTAVYYCVRHGNFGNSYVSWFAYWGQGTLVTVSSASTKGPSVFPLAPSSKSTSGGTAALGCLVKDYFPEPVTVSWNSGALTSGVHTFPAVLQSSGLYSLSSVVTVPSSSLGTQTYICNVNHKPSNTKVDKKVEPKSCDKTHTCPPCPAPEAAGGPSVFLFPPKPKDTLMISRTPEVTCVVVSVSHEDPEVKFNWYVDGVEVHNAKTKPREEQYNSTYRVVSVLTVLHQDWLNGKEYKCKVSNKALPAPIEKTISKAKGQPREPQVYVYPPSREEMTKNQVSLTCLVKGFYPSDIAVEWESNGQPENNYKTTPPVLDSDGSFALVSKLTVDKSRWQQGNVFSCSVMHEALHNHYTQKSLSLSPG
light: QTVVTQEPSLTVSPGGTVTLTCRSSTGAVTTSNYANWVQQKPGQAPRGLIGGTNKRAPGTPARFSGSLLGGKAALTLSGVQPEDEAEYYCALWYSNLWVFGGGTKLTVLGQPKAAPSVTLFPPSSEELQANKATLVCLISDFYPGAVTVAWKADSSPVKAGVETTTPSKQSNNKYAASSYLSLTPEQWKSHRSYSCQVTHEGSTVEKTVAPTECS
scFv: DIVMTQSPDSLAVSLGERATINCKSSQSVLHSSNNKNYLTWFQQKPGQPPKLLIYWASTRESGVPDRFSGSGSGTDFTLTISSLQAEDVAVYYCHQYYSTPPTFGQGTKVEIKGGSEGKSSGSGSESKSTGGSQVQLQQSGPGLVKPSQTLSLTCAISGDSVSSNSAAWNWIRQSPSRGLEWLGRTYYRSKWYNDYAVSVKSRITINPDTSKNQISLQLNSVTPEDTAVYYCAGDRRYGIVGLPFAYWGQGTLVTVSSEPKSSDKTHTCPPCPAPEAAGGPSVFLFPPKPKDTLMISRTPEVTCVVVSVSHEDPEVKFNWYVDGVEVHNAKTKPREEQYNSTYRVVSVLTVLHQDWLNGKEYKCKVSNKALPAPIEKTISKAKGQPREPQVYVLPPSREEMTKNQVSLLCLVKGFYPSDIAVEWESNGQPENNYLTWPPVLDSDGSFFLYSKLTVDKSRWQQGNVFSCSVMHEALHNHYTQKSLSLSPG
B2: HC3B123 (CD3W246-Fab-Fc x MHGB732-LH-scFv-Fc) (bispecific antibody, human IgG1, kappa, L234A L235A)
heavy: EVQLVESGGGLVKPGGSLRLSCAASGFTFSRYNMNWVRQAPGKGLEWVSSISTSSNYIYYADSVKGRFTFSRDNAKNSLDLQMSGLRAEDTAIYYCTRGWGPFDYWGQGTLVTVSSASTKGPSVFPLAPSSKSTSGGTAALGCLVKDYFPEPVTVSWNSGALTSGVHTFPAVLQSSGLYSLSSVVTVPSSSLGTQTYICNVNHKPSNTKVDKKVEPKSCDKTHTCPPCPAPEAAGGPSVFLFPPKPKDTLMISRTPEVTCVVVSVSHEDPEVKFNWYVDGVEVHNAKTKPREEQYNSTYRVVSVLTVLHQDWLNGKEYKCKVSNKALPAPIEKTISKAKGQPREPQVYVYPPSREEMTKNQVSLTCLVKGFYPSDIAVEWESNGQPENNYKTTPPVLDSDGSFALVSKLTVDKSRWQQGNVFSCSVMHEALHNHYTQKSLSLSPGK
light: DIQMTQSPSSLSASVGDRVTITCRARQSIGTAIHWYQQKPGKAPKLLIKYASESISGVPSRFSGSGSGTDFTLTISSVQPEDFATYYCQQSGSWPYTFGQGTKLEIKRTVAAPSVFIFPPSDEQLKSGTASVVCLLNNFYPREAKVQWKVDNALQSGNSQESVTEQDSKDSTYSLSSTLTLSKADYEKHKVYACEVTHQGLSSPVTKSFNRGEC
scFv: DIVMTQSPDSLAVSLGERATINCKSSQSVLHSSNNKNYLTWFQQKPGQPPKLLIYWASTRESGVPDRFSGSGSGTDFTLTISSLQAEDVAVYYCHQYYSTPPTFGQGTKVEIKGGSEGKSSGSGSESKSTGGSQVQLQQSGPGLVKPSQTLSLTCAISGDSVSSNSAAWNWIRQSPSRGLEWLGRTYYRSKWYNDYAVSVKSRITINPDTSKNQISLQLNSVTPEDTAVYYCAGDRRYGIVGLPFAYWGQGTLVTVSSEPKSSDKTHTCPPCPAPEAAGGPSVFLFPPKPKDTLMISRTPEVTCVVVSVSHEDPEVKFNWYVDGVEVHNAKTKPREEQYNSTYRVVSVLTVLHQDWLNGKEYKCKVSNKALPAPIEKTISKAKGQPREPQVYVLPPSREEMTKNQVSLLCLVKGFYPSDIAVEWESNGQPENNYLTWPPVLDSDGSFFLYSKLTVDKSRWQQGNVFSCSVMHEALHNHYTQKSLSLSPG

Molecular target: HLA-G on NCI-H2009-b2m target cells (human, UniProt P17693 25-338)
Test: cell-based or functional assay

| Binder | Cytotoxicity, EC50 (M); T cell-mediated cytotoxicity against NCI-H2009-b2m cells, 72 hr, E:T 3:1 [M] |
| --- | --- |
| B1 | 3.85e-12 |
| B2 | 3.24e-12 |
